Laboratory results from the Human Domainome abundance scans (Beltran et al. 2025).
± gives the uncertainty stated by the source.

assay: abundance fitness (aPCA) (normalised: wild type 0, dead -1); higher = more abundant; growth selection in yeast, the domain comes from the species named; settings: Homo sapiens

**Q.** With “DnaJ homolog subfamily B member 1 D65E, P25685” as the substance, how does the abundance fitness read?
**A.** -0.152 ± 0.2

**Q.** With “DnaJ homolog subfamily B member 1 D65F, P25685” as the substance, how does the abundance fitness read?
**A.** -0.275 ± 0.18

**Q.** Which abundance fitness does the source give for “DnaJ homolog subfamily B member 1 D65G, P25685” here?
**A.** -0.197 ± 0.11

**Q.** For “DnaJ homolog subfamily B member 1 D65I, P25685”, which abundance fitness is on record?
**A.** -0.387 ± 0.1

**Q.** For “DnaJ homolog subfamily B member 1 D65L, P25685”, which abundance fitness is on record?
**A.** -0.116 ± 0.085

**Q.** With “DnaJ homolog subfamily B member 1 D65M, P25685” as the substance, how does the abundance fitness read?
**A.** -0.162 ± 0.13

**Q.** With “DnaJ homolog subfamily B member 1 D65N, P25685” as the substance, how does the abundance fitness read?
**A.** -0.222 ± 0.19

**Q.** Which abundance fitness does the source give for “DnaJ homolog subfamily B member 1 D65P, P25685” here?
**A.** -0.164 ± 0.11

**Q.** For “DnaJ homolog subfamily B member 1 D65Q, P25685”, which abundance fitness is on record?
**A.** -0.124 ± 0.11

**Q.** With “DnaJ homolog subfamily B member 1 D65R, P25685” as the substance, how does the abundance fitness read?
**A.** -0.163 ± 0.1

**Q.** For “DnaJ homolog subfamily B member 1 D65S, P25685”, which abundance fitness is on record?
**A.** -0.158 ± 0.18

**Q.** Which abundance fitness does the source give for “DnaJ homolog subfamily B member 1 D65T, P25685” here?
**A.** -0.228 ± 0.11

**Q.** For “DnaJ homolog subfamily B member 1 D65V, P25685”, which abundance fitness is on record?
**A.** -0.262 ± 0.1

**Q.** For “DnaJ homolog subfamily B member 1 D65W, P25685”, which abundance fitness is on record?
**A.** -0.358 ± 0.19

**Q.** Which abundance fitness does the source give for “DnaJ homolog subfamily B member 1 D65Y, P25685” here?
**A.** -0.261 ± 0.13

**Q.** Which abundance fitness does the source give for “DnaJ homolog subfamily B member 1 E18A, P25685” here?
**A.** -0.067 ± 0.074

**Q.** For “DnaJ homolog subfamily B member 1 E18D, P25685”, which abundance fitness is on record?
**A.** 0.034 ± 0.16

**Q.** Which abundance fitness does the source give for “DnaJ homolog subfamily B member 1 E18G, P25685” here?
**A.** -0.162 ± 0.066

**Q.** For “DnaJ homolog subfamily B member 1 E18H, P25685”, which abundance fitness is on record?
**A.** -0.066 ± 0.28

**Q.** With “DnaJ homolog subfamily B member 1 E18I, P25685” as the substance, how does the abundance fitness read?
**A.** -0.173 ± 0.14

**Q.** With “DnaJ homolog subfamily B member 1 E18K, P25685” as the substance, how does the abundance fitness read?
**A.** -0.205 ± 0.11

**Q.** Which abundance fitness does the source give for “DnaJ homolog subfamily B member 1 E18L, P25685” here?
**A.** -0.21 ± 0.071

**Q.** With “DnaJ homolog subfamily B member 1 E18M, P25685” as the substance, how does the abundance fitness read?
**A.** -0.188 ± 0.074

**Q.** With “DnaJ homolog subfamily B member 1 E18N, P25685” as the substance, how does the abundance fitness read?
**A.** -0.045 ± 0.18

**Q.** With “DnaJ homolog subfamily B member 1 E18Q, P25685” as the substance, how does the abundance fitness read?
**A.** -0.231 ± 0.083

**Q.** With “DnaJ homolog subfamily B member 1 E18S, P25685” as the substance, how does the abundance fitness read?
**A.** -0.093 ± 0.074

**Q.** For “DnaJ homolog subfamily B member 1 E18T, P25685”, which abundance fitness is on record?
**A.** -0.081 ± 0.15

**Q.** With “DnaJ homolog subfamily B member 1 E18V, P25685” as the substance, how does the abundance fitness read?
**A.** -0.209 ± 0.061

**Q.** With “DnaJ homolog subfamily B member 1 E18W, P25685” as the substance, how does the abundance fitness read?
**A.** -0.268 ± 0.061

**Q.** With “DnaJ homolog subfamily B member 1 E19A, P25685” as the substance, how does the abundance fitness read?
**A.** 0.022 ± 0.08

**Q.** Which abundance fitness does the source give for “DnaJ homolog subfamily B member 1 E19C, P25685” here?
**A.** -0.291 ± 0.12

**Q.** Which abundance fitness does the source give for “DnaJ homolog subfamily B member 1 E19D, P25685” here?
**A.** -0.089 ± 0.092

**Q.** With “DnaJ homolog subfamily B member 1 E19F, P25685” as the substance, how does the abundance fitness read?
**A.** -1.06 ± 0.08

**Q.** Which abundance fitness does the source give for “DnaJ homolog subfamily B member 1 E19G, P25685” here?
**A.** -0.539 ± 0.078

**Q.** Which abundance fitness does the source give for “DnaJ homolog subfamily B member 1 E19H, P25685” here?
**A.** -0.363 ± 0.14

**Q.** With “DnaJ homolog subfamily B member 1 E19I, P25685” as the substance, how does the abundance fitness read?
**A.** -0.659 ± 0.12

**Q.** Which abundance fitness does the source give for “DnaJ homolog subfamily B member 1 E19K, P25685” here?
**A.** -0.396 ± 0.099

**Q.** Which abundance fitness does the source give for “DnaJ homolog subfamily B member 1 E19L, P25685” here?
**A.** -0.32 ± 0.069

**Q.** With “DnaJ homolog subfamily B member 1 E19M, P25685” as the substance, how does the abundance fitness read?
**A.** -0.199 ± 0.1

**Q.** For “DnaJ homolog subfamily B member 1 E19N, P25685”, which abundance fitness is on record?
**A.** -0.273 ± 0.11

**Q.** For “DnaJ homolog subfamily B member 1 E19P, P25685”, which abundance fitness is on record?
**A.** -1.29 ± 0.11

**Q.** Which abundance fitness does the source give for “DnaJ homolog subfamily B member 1 E19Q, P25685” here?
**A.** 0.118 ± 0.12

**Q.** Which abundance fitness does the source give for “DnaJ homolog subfamily B member 1 E19R, P25685” here?
**A.** -0.452 ± 0.083

**Q.** Which abundance fitness does the source give for “DnaJ homolog subfamily B member 1 E19S, P25685” here?
**A.** -0.18 ± 0.069

**Q.** For “DnaJ homolog subfamily B member 1 E19T, P25685”, which abundance fitness is on record?
**A.** -0.36 ± 0.073

**Q.** Which abundance fitness does the source give for “DnaJ homolog subfamily B member 1 E19V, P25685” here?
**A.** -0.491 ± 0.093

**Q.** With “DnaJ homolog subfamily B member 1 E19W, P25685” as the substance, how does the abundance fitness read?
**A.** -1.25 ± 0.17

**Q.** Which abundance fitness does the source give for “DnaJ homolog subfamily B member 1 E19Y, P25685” here?
**A.** -1.06 ± 0.14

**Q.** Which abundance fitness does the source give for “DnaJ homolog subfamily B member 1 E38A, P25685” here?
**A.** -0.29 ± 0.26

**Q.** With “DnaJ homolog subfamily B member 1 E38C, P25685” as the substance, how does the abundance fitness read?
**A.** -0.027 ± 0.11

**Q.** Which abundance fitness does the source give for “DnaJ homolog subfamily B member 1 E38D, P25685” here?
**A.** -0.287 ± 0.24
